The text below walks through data of patent US20180327500A1 (SYMPHOGEN A S, published 2018).

In the test the target is T1, His tagged human MET ECD (Sinobiological) (human, UniProt P08581 25-932).
T1 construct: Bought monovalent antigen; also called human MET antigen; not shown: His tag
Kind of test: BLI (Octet QK384); antibody captured on anti-human Fc sensors, monovalent MET ECD in solution, 1:1 Langmuir fit.

T1 sequence (P08581 25-932): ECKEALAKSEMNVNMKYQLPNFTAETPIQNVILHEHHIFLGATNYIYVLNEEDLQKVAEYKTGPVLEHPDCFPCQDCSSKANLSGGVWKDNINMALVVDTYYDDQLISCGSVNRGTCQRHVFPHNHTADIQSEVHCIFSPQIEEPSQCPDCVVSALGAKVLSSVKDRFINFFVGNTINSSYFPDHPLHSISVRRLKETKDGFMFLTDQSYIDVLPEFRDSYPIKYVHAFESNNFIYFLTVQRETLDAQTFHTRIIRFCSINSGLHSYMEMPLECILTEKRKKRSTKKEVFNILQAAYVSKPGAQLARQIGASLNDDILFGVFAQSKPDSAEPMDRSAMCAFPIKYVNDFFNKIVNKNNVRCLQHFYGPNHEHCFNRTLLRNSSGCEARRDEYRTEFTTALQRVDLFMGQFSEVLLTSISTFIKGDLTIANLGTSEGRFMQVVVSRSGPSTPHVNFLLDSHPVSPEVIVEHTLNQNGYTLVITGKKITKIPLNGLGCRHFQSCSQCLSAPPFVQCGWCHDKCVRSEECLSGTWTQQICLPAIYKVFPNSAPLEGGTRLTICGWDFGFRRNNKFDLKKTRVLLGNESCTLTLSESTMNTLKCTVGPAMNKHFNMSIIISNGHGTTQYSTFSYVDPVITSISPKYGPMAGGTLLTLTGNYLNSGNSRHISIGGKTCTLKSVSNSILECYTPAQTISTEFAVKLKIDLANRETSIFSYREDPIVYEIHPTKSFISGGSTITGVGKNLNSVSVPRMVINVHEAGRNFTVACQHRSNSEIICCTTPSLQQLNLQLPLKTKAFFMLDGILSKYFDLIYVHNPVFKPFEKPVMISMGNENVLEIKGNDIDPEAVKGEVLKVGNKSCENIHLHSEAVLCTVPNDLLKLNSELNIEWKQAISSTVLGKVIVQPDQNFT

B1: chimeric antibody 9338 (antibody, V domains shown)
VH: QVQLQQPGAELAKPGASVRMSCKASGYTFTSYWMHWVKQRPGQGLEWIGYINPSSGHIENNQKFKDKATLTADKSSSTAYMQLSSLTFEDSAVYYCARGRFAYWGQGTLVTVSS
VL: DIVMTQSPAIMSASPGEKVTLTCSASSSVSSGYLYWYQQKPGSSPKLWIYSTSNLASGVPARFSGSGSGTSYSLTVNSMEAEDAASYFCHQWSSYPFTFGSGTKLELK
As for B1, the Kd was determined as 0.6 nM, the koff stood at 0.00011 s⁻¹ and the kon was 190000 M⁻¹ s⁻¹.

B2: chimeric antibody 9006 (antibody, V domains shown)
VH: QIHLGQSGPELKKPGETVKISCKASGYTFTNFRMNWVKQAPGKGLKWMGWINTYTGEPTYVDDLKGRFAFSLETSASTAYLQINNLKNEDMATYFCARKGIARAMDYWGQGTSVTVSS
VL: NIVMTQSPSSLSVSAGEMVTMSCKSSQSLLDSGNQKNYLAWYQQKPGQPPQLLIFGASTRESGVPDRFTGSGSGTDFTLTVSSVQAEDLAVYYCQNDHSYPYTFGGGTKLEIK
For the molecule B2, the Kd came to 2.2 nM, the koff is 0.00012 s⁻¹ and the kon worked out at 54000 M⁻¹ s⁻¹.
